Measured values: publication PMC3317225, “MsDpo4—a DinB Homolog from Mycobacterium smegmatis—Is an Error-Prone DNA Polymerase That Can Promote G:T and T:G Mismatches” (Journal of Nucleic Acids, 2012)

Legend:
Assay in all cases: steady-state primer extension, 6-FAM labelled primer, gel, Lineweaver-Burk
Type in all cases: biochemical, Mycolicibacterium smegmatis
[1] = substrate: Nc1nc2c(ncn2[C@H]2C[C@H](O)[C@@H](COP(=O)(O)OP(=O)(O)OP(=O)(O)O)O2)c(=O)[nH]1; settings: template dT (mismatch T:G, misincorporation), 20 nM DNA T2P1, 10 nM enzyme, Mg2+, pH 8.0, 37°C (given for the primer extension assay), number in parentheses is standard error
From the text: (§1) steady-state primer extension, 6-FAM labelled primer, gel, Lineweaver-Burk on MsDpo4

[2] = substrate: Nc1ccn([C@H]2C[C@H](O)[C@@H](COP(=O)(O)OP(=O)(O)OP(=O)(O)O)O2)c(=O)n1; settings: template dG (correct pair G:C), 20 nM DNA T1P1, 1 nM enzyme, Mg2+, pH 8.0, 37°C (given for the primer extension assay), number in parentheses is standard error
From the text: as §1

[3] = substrate: Nc1ncnc2c1ncn2[C@H]1C[C@H](O)[C@@H](COP(=O)(O)OP(=O)(O)OP(=O)(O)O)O1; settings: template dT (correct pair T:A), 20 nM DNA T2P1, 1 nM enzyme, Mg2+, pH 8.0, 37°C (given for the primer extension assay), number in parentheses is standard error
From the text: as §1

[4] = substrate: Cc1cn([C@H]2C[C@H](O)[C@@H](COP(=O)(O)OP(=O)(O)OP(=O)(O)O)O2)c(=O)[nH]c1=O; settings: template dG (mismatch G:T, misincorporation), 20 nM DNA T1P1, 10 nM enzyme, Mg2+, pH 8.0, 37°C (given for the primer extension assay), number in parentheses is standard error
From the text: as §1

B1: MsDpo4 (Mycolicibacterium smegmatis MC2 155) (protein)
chain: MTKWVLHVDLDQFLASVELRRRPDLRGQPVIVGGSGDPSEPRKVVTCASYEAREFGVHAGMPLRAAARRCPDATFLPSDPAAYDEASEQVMGLLRDLGHPLEVWGWDEAYLGADLPDESDPVEVAERIRTVVAAETGLSCSVGISDNKQRAKVATGFAKPAGIYVLTEANWMTVMGDRPPDALWGVGPKTTKKLAAMGITTVADLAVTDPSVLTTAFGPSTGLWLLLLAKGGGDTEVSSEPWVPRSRSHVVTFPQDLTERREMDSAVRDLALQTLAEIVEQGRIVTRVAVTVRTSTFYTRTKIRKLPAPSTDAGQIVDTALAVLDQFELDRPVRLLGVRLELAMDDVPRPAVTAGT
notes: msmeg_1014 in pGEX6P1, expressed as GST-MsDpo4 fusion in bacteria; single-chain Y-family polymerase
- Km [1]: 166.5 (39.01) μM
- Km [2]: 4.3 (0.69) μM
- Km [3]: 5.5 (1.54) μM
- Km [4]: 165.5 (39.70) μM
